Experimental data as given in a protein production outcome set (Wang et al. 2014).

Test: label from the status in PepcDB records

Sequence	protein production
MTPLMLMVVAGAGIALLLFLVLKYKFQPFVALMLVSIIVALVAGVKPADLVATIEGGMGKTLGHIAIIIALGAMIGRIIELSGGAEALAKTLINRFGNRRTPLALTVAGFMVGIPVFFEVGVIILMPLAYGVARAARKPLLIFALPMCAALLAVHAFLPPHPGAVAAASQLGADLGRVLMLGIPIVAVLCMIGYFVAGRMTRKTYPMTDDIRAEVYGPHVTNEDLEAWARNDYSGAREATETKTLGAEESASSLASKLPPAPAPGFGLIIALILLPIVLILMGTLATTLLPATSTLRAVLTVLGAPLVALLIDTLLCAWLLGSRRGWSRTQVSDVIGSALPGVAMVILIAGAGGVFGKVLVDTGIGAVVSEALRNTGLPVLALGFLLTLLLRAVQGSTTVALVTTAGILSPLIATLDLSANHLALLCLAMGGGGLAMSHINDAGYWMFTKLAGLNVADGLRTWTVLVTLLGTLGFVITLLLWPFV	failed
AAGAVRTDPVIHLHGSRSEDEPTTVLVHAGTATIMPYRALITEIRRRSPGLAEVVGVEVPDLSGFLAAPPDGLIERMAADYARALTADGRHRFHVVGYCLGGLIATEVARNLAESGAEVESLTVISSHSPRFRLDDELLAEYSFAVMMGIDPADLGFPDDQYRVAAAADTVLAASPGVLPDGGLAALGGEFEDVASRFRRLADVPRATRIARMCEAVPASAGTYEPDHMTRLFLAFRQSVFAITRYRAEPYAGDITFLRHDGAYPFPGSKDAVTAYWEELTLGDLDIVDIGGDHYSCLSVEHAPGILKTLGELTQGAITR	failed
MGHHHHHHENLYFQSHERLSEKKIKNLLTSKQQRQQYEIKQRSMLRHLAELRRHSRFRRLCTKPASSSMPASTSSVDRRTTRRSTSQTSLSPSNSSGYGSVFGCEEHDVDKIPSLNGFAKLKRRRSSCVGAPTPNSKRSKNNMGVIAKRPPKGEYVVERIECVEMD	failed
MIPTATYRLQFRNGMTFDRAAALVPYLKNLGISHLYASPIFTATKASTHGYDVTDANEIEPSIGGREGFERLVAELKAQGLGLIIDIVPNHMASSLENAWWRDVLEYGKESRYARHFDIDWSRRLTLPFLGDTFDAVLENGEIAIKPDPATGKPAFAYYDNYYPLAPATWQGREAEILALTDKAAIADLHERQPWKLMSWRDAARSLSYRRFFEVTGLVGMRVEDKTVFDDTHRLILELVRTGAVDGLRIDHIDGLADPKAYLARLRQEVGPACYITVEKILAKGEQLPDDWPVSGTTGYEFIASLAEVLVDDEQIDNLRQAYETVKGAPVDMRAELRAAKLLMVDRNFEGEFTRLLALALSIASELQIAQEESVVRQALRELLIAFPVYRTYGTAEGLPPTDICLLHRIVERVKTLETPPQPEALTFLSRLLTGDVPASSQEEATQFRVRFQQLTGPLMAKSVEDTLFFRQNMGLALNEVGAEPVTHHFSIERFHHEMKTRQARQPDALSGTSTHDTKRGEDARARLYTLTEAPEQWSECLARWRQMNQTHVKFLNDGTAPKSADTWMLYQALTGVWPPVLQPQDETGLNALKTRFEAFVEKALREAKLRTDWVDSNEAYETAMLDYARYLLAPDNQTFLQDFYRSLQPFIRAGLVNSLTQTVIKLTAPGVPDIYQGSEALNFSLVDPDNRREPDFATLAQQLDQLTPGVFSREESWLNGQVNQYVTAALLRLRQQNHELFRFGDYIPLRAVGQRADKVIAYARVNHDDALIVVAPRLVFAECDGLLSQSHSGFWSGTDIIIPGQLNQHRYRNVLTQERLMPGERLSLASHQGGVLVLMSD	failed
MWGQMRNRNWRSRALCTVVATSLLALGGPLLSATAAGGPNIAVGDATAASSSHGEYGAANITDGNQGTYWQSGGGSLPQWVQTDLGATERIDEVVLRLPAGWESRDQTLSVQGSADGTGFSTLKTSATYAFDPGSGNTVTIAFPATQTRFVRVDITANTGWQAAQLSELEVHAAGESSVNLAAGRRLTASSSTGAYTPGNGNDGNKATYWESANNALPQWLQADLGSARRVNRVVLRLPDGWPARSQTLKIQASDNGSDFTDLTAAKAYTFDAAGGQSATVTFDAATARYVRVLVTANTGQPAAQISELEVYGPETGDTQAPTTPANLAFTEPATGQIRLTWNESSDDTAVTGYDVYANGDLLTSVAGDVTTYTDTRPAGTTVTYHVRAKDAAGNQSGDSNSVTRRADTGDTQAPTAPSNLALTEPVPGQVKLTWTASTDDRGVTGYDVYADNKLRKSVAGNVTTYTDTQPASANVTYFVRAKDAAGNESGDSNSVFRGGTMDGSNLAVGKPITASSHIHTYVAENANDNSTSTYWEGAAGGYPNTLTLKLGANADVDSVVLKLNPDAGWSRRTQHIEVLGRAQDASGLTSLVAARDYVFDPASGGNSVTIPVGERAADVQLKFTSNTGATAGQVAEFQVIGTPAPNPDLEVTGLTASPGSPVESDEITVSATVRNSGAADAPAGKVAVRLGDTKVATADVPALEAGAQRTVSASLGAREAGSYELSAVADEANEIIEQNETNNTYTRPDPLVVKPVQSSDLVAAAVTTSPSSPAAGDDVTFRVALRNQGTQDSAGGGHPVTLALVDSKGDTVKTLTGTHSGVIAAGSTAPAVSLGTWKAANGSYSLKVTVADDANELPVKRENNTSTQPLFVGRGANMPYDMYEAEDGTVGGGATVVGPNRTIGDIAGEASGRKAVHLDRTGEYVEFTTKADTNTLVTRFSIPDAPGGGGIDATLDVYVDGVMKKALPLTSKYAWLYGAEASPGNSPGAGAPRHIYDEAHIMLGETVPAGSTIRLQKDAANTSDYAIDFVNLEQVSATANPDPAAYAVPAGFTHQDVQNALDKVRMDTSGKLVGVYLPPGDYQTSSKFQVYGKAVKVVGAGPWFTKFHAPTTQDNTDIGFRAEASAKGSTFANFAYFGNYTSRIDGPGKVFDFSNTSDIVIDNIWNEHMVCLYWGANTDRMTIRNSRIRNMFADGINMTNGSTDNLVSNNDARATGDDSFALFSAIDAGGADMKNNLYENLTTTLTWRAAGLAVYGGYNNTFRNIHIADTLVYSGITISSLDFGYPMNGFGTDPTTFENVSIVRAGGHFWGGQTFPGIWVFSASKVFQGIRVNNVDIVDPTYSGIMFQTNYVGGQPQFPIKDTVFTDVSVTGAHKSGDEFDAKSGFGLWANEMPESGQGPAVGEVTFNGLALGDNAVDIRNTTSTFKIIRNP	failed
MRVTYWRDESLQKNDRSHIKAYALMSGILAQLVGSILVGIFGGQWIDNKVGTFPLFLIIGLLLGLGTGVYAMIRLIRHYYSGEQ	failed
MEMMLGKTYREMVFWMAWIIIPFLMEIVPALGGFIILLRKRLSIKDKAFSGKLPQITIIVPVYNSEDTLKGCIESIYNSDYPSEFIDVMLVDNQSSDNSFKIFTRCQKEFDGLSLRYMNSKQGKSKALNMALFNSSGKYIIHIDSDGKLHKDAIKNMVTRFEGNPHVHCMTGVILTDKELIEKTKGSFFKLLRKCEFFEYAQAFLAGRNFESEVGSIYTLSGAFSAFRKSTILKTQLYNSETVSEDTQITFQVKKLLNQKVYLCENALFFVDPIEGFNKLYTQRQRWQRGELEVSHMFLRDGLKFGKGFVSDFMVRTLMYDHTFAFPRMIWYFALIFLVFMNYPIYLVVGSVAVIYLLYSLSAFLFYLNVISYLKKYKEVRSYYAKKFYLIFLMPMYNFGVFWIRFCGIINSIQLQGNWKTLNLTDEWRNFLGVFKRDFSVVFKVLNKLRQVVNNE	failed
SISTHESQKLREYYRLLNLDEGCSVDDVRESFHKLARQYHPDSGSSDADSATFIKIEEAYRNVLSHAIKRMHAGQDKAEDAAEDEEEGKFKYNTPQHRHYLSFEGVGFGTPSQREKQYRQFRADRATEQVMEYQRQKLQREFFANSITVKDVRQSKQQKITQAIERLVEDLIQESMAKGDFDNLSGKGKPLKKFSGCSYIDPMTHNLNRILIDNGYQPEWILMQKEIKDTIEQLREALLMSRKKLGNPLSPTEQKQWAQVCEQFQEKIRKLNKRINDFNLIVPILTRQKVHFDAQKEIIRVQEMYGAFVEANEVTEENQTDVSQGEESKTPRVKAGFLNWLNLWKSIKI	failed
MLELFMQPEAWVIFATLFALEVVLGVDNVVFISVLCERLPSHQRKLARNLGIGLAVLARIGLVFSITWIMQLTQPLFSVANHAVTGRDMIMILGGAFLLAKSLKELWSWLTHNETDHSTHVRTGLAVVLLQIVAVDAVFSMDSVITAVGLTSEVPLMVAAIIASALVMVMTAEKINNLVTRYPGFKTLALLFLVLLGGLLMAEGFAIHINKGYVYFAMAFGLALELCHIQLKNKQRRTIQRIRPMHDVAT	failed
MQPQNIFDNEVFFQGYKKLRENPNSANILEEKPAIFSLLPELTGKKVLDLGCGYGENCNMFSKMGANKVVGIDVSSKMLAIANNDNSGDNIFYENMCMEDIFCINEKFDVVVSSLAVHYINDFNKLVCNVNSLLKDNGIFVFSQEHPLTTAPKNGARWFKNVDGRIAHYVLTDYATSGERTVSWIVDGITKYHRTFSDIVNALIDAGFIIEKMLEPVPTKEIIERDPSSAKDLHKPNFLVTRARKK	failed
MIFWRLLQEFASTTIHGTKGICHADELIEKGQIDKAEQAVLTLLERKPNDANILHLAGVVALRKGQNSRAVALISKALEYAPNESLYYFNLGNAYLADGAIDLGIQALQDATRLDPERMEAWMNLGLALVEAKRHPEAVAAFERLLEIDPDHEADVAFASALVGAGIMLKESAMVDRGISVLESKLRDGYERYAAGVILARALEHRNRLSEAIRQHQALLEANPEHIGIRNNLARCLVQLGRVEEARTHYRLCVKSAPDKYHAFSALLAGLNYEPNLTAAMHEAEVRNWEKQLALPHYPVEPEFPNERDPERPLKIGYLSPDLRQHVVGHNFLPVLEHRNREQFSVFCYHIGEKQDDMSRRIAALADHWRHVHGASDDEVAALIREDRVDILVDLSGHTSHTQPLVFARKPAPVQVSWLGYFDTTGLATMDWFITDPYSSPPDQKQYFSERLYRMPHTRLYYHPYPDMPAVGQLPAKRNGYITFGCLNNLAKINTEVLDLWAQILAASPTSRLLIQTVALCDRLNLERFRALCVERGLDPARLELRPATSLEKFAQTYHQIDIALDPFPFCGGFTSFDALWMGVPVITLEQQRLAGRQTLSMLMNLGLPHLIASNKTDYVSIALELSRDSSEIEQLRSELRSRFLQSPLIDHCRFTRELEKAYRFFWSHWCTEKKQSSARKGISAPMDAYPSRRQISAT	failed
MRLLAILILCILVAACDRQAATEELTEARSAFANREWNDAERLLEGYLRRNPEGAQRWEAWNLLVEVAHRVRNDERATVELLETMYLENGSNPERAYDILTRLGELLEAGRDFRRAAEVWPRVLELPGLTPDTRALVSRRLARILVMQRRFPEAEERLKACLDTEGLSTEGRAGCLYDLADLNVASEHLDVAVDLATTLVGLEGLTPELRSQAGFLLADALEQRGRFAEALERFEALRGVYPNDMVIDTRVRHLKGRLGRK	failed
MVKKIGLSIMLLFFFLIIALPIYAWKIEPNLVHVNQVTLGKKNQREPLNVVQLSDIQVSEFYETKRLDKVIKKVNREKPDIIVFTGDLFDNYAKNPQQKEPMIEKLKQLQATIGKYAVWGNHDYGGGASAVYDEVMEASGFTVMKNQGETVTLADGRRLFIGGLDDSLLGNPSVSETLSYRETYDYALLMTHEPDVADAFVGTGTQLVLAGHSHGGQIWIPFYPITNVLAEKYTRGLYQLDQETQLYVNTGLGTTAIHARFGVIPEITHFTIYI	failed
MRDTTWHVPEDDLRAYVQGELAPPRLWSADTHLAACERCRAALAEAGDPVALDAAWERLDAELDAPRPGMFESLLVRAGVADHTARLLTATPVLRRSWLGAVAFLLVMTVGIVLTVDSPALFLALAPLLPLAGVALSYGPVLDPTYEMAVVAPLHGFRLLLIRTLAVLATGLLLNGLATLALPGYGLRALAWLLPALALTGTGLALTPRLGPVLAPALTGGAWIGLLLVAQARTHETLAPFTMAGQGAAAVVAALAAGLLYRTRDRFDSVAARLPFAHLPGGGAV	failed
